Tests used:
[1] = biological target: Recombinant, his tagged full length human frataxin protein (Abcam ab95502) (human) (UniProt Q16595); experiment: Simoa sandwich 2-step; capture Ab-3; frataxin 1000 pg/mL
[2] = biological target: Recombinant, his tagged full length human frataxin protein (Abcam ab95502) (human) (UniProt Q16595); experiment: Simoa sandwich 3-step; capture Ab-4
[3] = biological target: Recombinant, his tagged full length human frataxin protein (Abcam ab95502) (human) (UniProt Q16595); experiment: Simoa sandwich 3-step; capture Ab-1; frataxin 1000 pg/mL
[4] = biological target: Recombinant, his tagged full length human frataxin protein (Abcam ab95502) (human) (UniProt Q16595); experiment: Simoa sandwich 3-step; capture Ab-3; frataxin 1000 pg/mL
[5] = biological target: Recombinant, his tagged full length human frataxin protein (Abcam ab95502) (human) (UniProt Q16595); experiment: Simoa sandwich 3-step; capture Ab-2; frataxin 100 pg/mL
[6] = biological target: Recombinant, his tagged full length human frataxin protein (Abcam ab95502) (human) (UniProt Q16595); experiment: Simoa sandwich 3-step; capture Ab-4; frataxin 10000 pg/mL
[7] = biological target: Recombinant, his tagged full length human frataxin protein (Abcam ab95502) (human) (UniProt Q16595); experiment: Simoa sandwich 3-step; capture Ab-3; frataxin 100 pg/mL
[8] = biological target: Recombinant, his tagged full length human frataxin protein (Abcam ab95502) (human) (UniProt Q16595); experiment: Simoa sandwich 3-step; capture Ab-3; frataxin 1000 pg/mL; remark: listed apart in the source
[9] = biological target: Recombinant, his tagged full length human frataxin protein (Abcam ab95502) (human) (UniProt Q16595); experiment: Simoa sandwich 2-step; capture Ab-3; frataxin 0.686 pg/mL
[10] = biological target: Recombinant, his tagged full length human frataxin protein (Abcam ab95502) (human) (UniProt Q16595); experiment: Simoa sandwich 3-step; capture Ab-4; frataxin 1000 pg/mL
[11] = biological target: Recombinant, his tagged full length human frataxin protein (Abcam ab95502) (human) (UniProt Q16595); experiment: Simoa sandwich 3-step; capture Ab-3; frataxin 100 pg/mL; remark: listed apart in the source
[12] = biological target: Recombinant, his tagged full length human frataxin protein (Abcam ab95502) (human) (UniProt Q16595); experiment: Simoa sandwich 2-step; capture Ab-3; frataxin 18.5 pg/mL
[13] = biological target: Recombinant, his tagged full length human frataxin protein (Abcam ab95502) (human) (UniProt Q16595); experiment: Simoa sandwich 3-step; capture Ab-2; frataxin 1000 pg/mL
[14] = biological target: Recombinant, his tagged full length human frataxin protein (Abcam ab95502) (human) (UniProt Q16595); experiment: Simoa sandwich 2-step; capture Ab-3; frataxin 6.17 pg/mL
[15] = biological target: Recombinant, his tagged full length human frataxin protein (Abcam ab95502) (human) (UniProt Q16595); experiment: Simoa sandwich 3-step; capture Ab-1
[16] = biological target: Recombinant, his tagged full length human frataxin protein (Abcam ab95502) (human) (UniProt Q16595); experiment: Simoa sandwich 2-step; capture Ab-3
[17] = biological target: Recombinant, his tagged full length human frataxin protein (Abcam ab95502) (human) (UniProt Q16595); experiment: Simoa sandwich 3-step; capture Ab-4; frataxin 100 pg/mL
[18] = biological target: Recombinant, his tagged full length human frataxin protein (Abcam ab95502) (human) (UniProt Q16595); experiment: Simoa sandwich 2-step; capture Ab-3; remark: listed apart in the source
[19] = biological target: Recombinant, his tagged full length human frataxin protein (Abcam ab95502) (human) (UniProt Q16595); experiment: Simoa sandwich 3-step; capture Ab-5; frataxin 100 pg/mL
[20] = biological target: Recombinant, his tagged full length human frataxin protein (Abcam ab95502) (human) (UniProt Q16595); experiment: Simoa sandwich 3-step; capture Ab-1; frataxin 10000 pg/mL
[21] = biological target: Recombinant, his tagged full length human frataxin protein (Abcam ab95502) (human) (UniProt Q16595); experiment: Simoa sandwich 3-step; capture Ab-3
[22] = biological target: Recombinant, his tagged full length human frataxin protein (Abcam ab95502) (human) (UniProt Q16595); experiment: Simoa sandwich 3-step; capture Ab-2
[23] = biological target: Recombinant, his tagged full length human frataxin protein (Abcam ab95502) (human) (UniProt Q16595); experiment: Simoa sandwich 2-step; capture Ab-3; frataxin 500 pg/mL
[24] = biological target: Recombinant, his tagged full length human frataxin protein (Abcam ab95502) (human) (UniProt Q16595); experiment: Simoa sandwich 2-step; capture Ab-3; frataxin 2.06 pg/mL
[25] = biological target: Recombinant, his tagged full length human frataxin protein (Abcam ab95502) (human) (UniProt Q16595); experiment: Simoa sandwich 3-step; capture Ab-3; remark: listed apart in the source
[26] = biological target: Recombinant, his tagged full length human frataxin protein (Abcam ab95502) (human) (UniProt Q16595); experiment: Simoa sandwich 2-step; capture Ab-3; frataxin 55.6 pg/mL
[27] = biological target: Recombinant, his tagged full length human frataxin protein (Abcam ab95502) (human) (UniProt Q16595); experiment: Simoa sandwich 3-step; capture Ab-2; frataxin 10000 pg/mL
[28] = biological target: Recombinant, his tagged full length human frataxin protein (Abcam ab95502) (human) (UniProt Q16595); experiment: Simoa sandwich 3-step; capture Ab-5; frataxin 1000 pg/mL
[29] = biological target: Recombinant, his tagged full length human frataxin protein (Abcam ab95502) (human) (UniProt Q16595); experiment: Simoa sandwich 3-step; capture Ab-1; frataxin 100 pg/mL
[30] = biological target: Recombinant, his tagged full length human frataxin protein (Abcam ab95502) (human) (UniProt Q16595); experiment: Simoa sandwich 2-step; capture Ab-3; frataxin 167 pg/mL
[31] = biological target: Recombinant, his tagged full length human frataxin protein (Abcam ab95502) (human) (UniProt Q16595); experiment: Simoa sandwich 3-step; capture Ab-5
[32] = biological target: Recombinant, his tagged full length human frataxin protein (Abcam ab95502) (human) (UniProt Q16595); experiment: Simoa sandwich 2-step; capture Ab-3; frataxin 100 pg/mL

Chain of UniProt Q16595 (Q16595 42-210): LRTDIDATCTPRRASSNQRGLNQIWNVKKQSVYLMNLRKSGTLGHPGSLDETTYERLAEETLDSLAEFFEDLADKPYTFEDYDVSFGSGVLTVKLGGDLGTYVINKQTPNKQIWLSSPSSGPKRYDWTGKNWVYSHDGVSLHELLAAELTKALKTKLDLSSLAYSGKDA

Ab-4, mouse monoclonal [17A11] to Frataxin (Abcam ab113691) (antibody)
Ave AEB [1]: 29.7 AEB
S/B [1]: 394
LOD [2]: 358 pg/mL
Ave AEB [3]: 8.74 AEB
S/B [3]: 39.6
Ave AEB [4]: 8.02 AEB
S/B [4]: 138
Ave AEB [5]: 1.02 AEB
S/B [5]: 5.67
Ave AEB [6]: 0.82 AEB
S/B [6]: 35.6
Ave AEB [7]: 0.68 AEB
S/B [7]: 11.7
Ave AEB [8]: 12.8 AEB
S/B [8]: 160
Ave AEB [9]: 0.157 AEB
S/B [9]: 1.36
Ave AEB [10]: 0.0589 AEB
S/B [10]: 2.55
Ave AEB [11]: 1.34 AEB
S/B [11]: 16.8
Ave AEB [12]: 1.31 AEB
S/B [12]: 11.4
Ave AEB [13]: 7.32 AEB
S/B [13]: 40.7
Ave AEB [14]: 0.56 AEB
S/B [14]: 4.87
LOD [15]: 23.9 pg/mL
LOD [16]: 0.44 pg/mL
Ave AEB [17]: 0.0213 AEB
S/B [17]: 0.93
LOD [18]: 0.36 pg/mL
Ave AEB [19]: 2.02 AEB
S/B [19]: 4.93
Ave AEB [20]: 30.9 AEB
S/B [20]: 140
LOD [21]: 2.41 pg/mL
LOD [22]: 5.01 pg/mL
Ave AEB [23]: 23.7 AEB
S/B [23]: 206
Ave AEB [24]: 0.259 AEB
S/B [24]: 2.25
LOD [25]: 1.59 pg/mL
Ave AEB [26]: 3.75 AEB
S/B [26]: 32.6
Ave AEB [27]: 32.9 AEB
S/B [27]: 183
Ave AEB [28]: 18.6 AEB
S/B [28]: 45.4
Ave AEB [29]: 0.64 AEB
S/B [29]: 2.9
Ave AEB [30]: 11.1 AEB
S/B [30]: 97
LOD [31]: 6.44 pg/mL
Ave AEB [32]: 5.1 AEB
S/B [32]: 67.6

Source: patent US20220308072A1
